Laboratory results as given in patent publication US20150299314A1 (TORAY INDUSTRIES, published 2015).

target: T1, CAPRIN-1 protein expressed on the cell surface of human cancer cells (human, UniProt Q14444 2-709); test: cell-based or functional assay
T1 sequence (looked up): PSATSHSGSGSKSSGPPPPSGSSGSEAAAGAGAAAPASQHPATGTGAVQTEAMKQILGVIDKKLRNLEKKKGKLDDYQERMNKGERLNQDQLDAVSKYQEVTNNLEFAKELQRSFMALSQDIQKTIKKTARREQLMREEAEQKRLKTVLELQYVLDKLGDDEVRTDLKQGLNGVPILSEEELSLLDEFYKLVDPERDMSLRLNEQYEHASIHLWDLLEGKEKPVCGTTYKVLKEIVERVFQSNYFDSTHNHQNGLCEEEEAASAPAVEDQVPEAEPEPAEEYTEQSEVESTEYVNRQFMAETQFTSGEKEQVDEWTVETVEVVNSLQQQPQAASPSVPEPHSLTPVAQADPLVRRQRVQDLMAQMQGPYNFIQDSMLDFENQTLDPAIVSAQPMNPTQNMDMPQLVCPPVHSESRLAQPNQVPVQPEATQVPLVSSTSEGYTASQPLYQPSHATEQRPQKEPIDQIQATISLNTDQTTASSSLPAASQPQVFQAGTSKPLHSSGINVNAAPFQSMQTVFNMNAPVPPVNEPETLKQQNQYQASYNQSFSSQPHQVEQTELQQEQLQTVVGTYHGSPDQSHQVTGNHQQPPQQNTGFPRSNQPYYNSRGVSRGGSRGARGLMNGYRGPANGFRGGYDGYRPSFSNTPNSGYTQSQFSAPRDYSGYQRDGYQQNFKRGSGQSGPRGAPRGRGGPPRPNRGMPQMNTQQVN

ADCC activity on TGBC14TKB, method as in Example 12 [%] | Binder | ADCC activity (cytotoxicity, 51Cr release) on TGBC14TKB, antibody 5 ug/mL, human NK cells [%] | cytotoxicity (ADCC, 51Cr release) on TGBC14TKB, human NK cells [%]
≥ 20 | human-mouse chimeric anti-CAPRIN-1 antibody #25 (antibody, human IgG1, kappa, V domains shown) VH: GPGLVQPSQSLSITCTVSGFSLTTYDLHWVRQSPGKGLEWLGVIWSGGSTDYNAAFISRLSISKDNSKSQVFFKMNSLQANDTAIYYCARNYGYSAWFAYWGQGTLVTVSA VL: DVLMTQTPLSLPVSLGDQASISCRSSQSIVHSNGNTYLEWYLQKPGQSPKLLIYKVSNRFSGVPDRFSGSGSGTDFTLKISRVEAEDLGVYYCFQGSHVPLTFGAGTKLELKR | – | –
≥ 20 | human-mouse chimeric anti-CAPRIN-1 antibody #27 (antibody, human IgG1, kappa, V domains shown) VH: GGGLVQPGGSMRLSCVASGFTFSNSWFNWVRQSPEKGLEWVAEIRLTSDNYAIYYAESVKGRFTISRDDSKSSVYLQMNNLRAEDTGIYYCTRPETARATFAYWGQGTTVTVSS VL: DVLMTQTPLSLPVSLGDQASISCRSSQSIVHSNGNTYLEWYLQKPGQSPKVLIYKVFNRFSGVPDRFSGSGSGTDFTLKISRVEAEDLGVYYCFQGSHVPRTFGGGTKLNQTG | – | –
≥ 20 | human-mouse chimeric anti-CAPRIN-1 antibody #28 (antibody, human IgG1, kappa, V domains shown) VH: GPDLVKPGASVKISCKASGYSFTAYYMHWVKQSHGKSLEWIGRVNPNNGGTTYNQKFKGKAILTVDKSSSTAYMELRSLTFEDSAVYYCARRIYYGYFDYWGQGTTVTVSS VL: AFFAVSLGQRATISCKASQSVDYDGDSYMNWYQQKPGQPPKLLIYVASNLESGVPARFSGSGSGTDFTLNIHPVEEEDAATYYCQQSNEDPYTFGGGTKLEIKQ | – | –
≥ 20 | human-mouse chimeric anti-CAPRIN-1 antibody #23 (antibody, human IgG1, kappa, V domains shown) VH: GGGLVKPGGSLKLSCAASGFTFSSYGMSWVRQTPEKRLEWVATISSGGSYTYYPDSVKGRFTISRDNAKNTLYLQMSSLRSEDTAMYYCASLASYYFDYWGQGTTLTVSS VL: GARCDVQMIQSPSSLSASLGDIVTMTCQASQGTSINLNWFQQKPGKAPKLLIYGASSLEDGVPSRFSGSCFGTDFTLTISSLEDEDMATYFCLQHSYLPPLTFGAGTKLELKR | – | –

Second part, the binder before the results:

Binder | ADCC activity on TGBC14TKB, method as in Example 12 [%] | ADCC activity (cytotoxicity, 51Cr release) on TGBC14TKB, antibody 5 ug/mL, human NK cells [%] | cytotoxicity (ADCC, 51Cr release) on TGBC14TKB, human NK cells [%]
human-mouse chimeric anti-CAPRIN-1 antibody #36 (antibody, human IgG1, kappa) heavy: not shown light: QDELSNPVTSGESVSISCRSSKSLLYKDGKTYLNWFLQRPGQSPQLLIYLMSTRASGVSDRFSGSGSGTDFTLEISRVKAEDVGVYYCQQLVEDPLTFGAGTKLELKRTVAAPSVFIFPPSDEQLKSGTASVVCLLNNFYPREAKVQWKVDNALQSGNSQESVTEQDSKDSTYSLSSTLTLSKADYEKHKVYACEVTHQGLSSPVTKSFNRGEC | – | ≥ 20 | –
human-chicken chimeric antibody #2 (antibody, human IgG1, kappa, V domains shown) VH: AVTLDESGGGLQTPGGGLSLVCKASGFTFSSFDMGWVRQAPGKGLEFVAQINDAGSRTWYATAVKGRATISRDNGQTTVRLQLNNLRAEDTGTYYCTRGSGYVGAGAIDAWGHGTEVIVSA VL: AALTQPSSVSANPGETVKITCSGGSGYYGWYQQQKSPGSAPVTVIYQNDKRPSDIPSRFSGSGSGSTNTLTITGVQAEDEAVYFCGRYDSTDSGIFGAGTTLTVLT | – | – | ≥ 15
mouse monoclonal antibody #8 (antibody, V domains shown, mouse hybridoma antibody; also called anti-CAPRIN-1 mouse monoclonal antibody #8; anti-CAPRIN-1 monoclonal antibody #8) VH: GGGLVKPGGSLKLSCAASGFAFSSYDMSWIRQTPEKRLEWVAYISSGAGSTYYPDTVKGRFTVSRDNAKNTLYLQMSSLKSEDTAMYYCARHFYRFDYWGQGTTVTVSS VL: SIVMTQTPKFLLVSAGDRITITCKASQSVSNDVAWYQQKPGQSPKLLIYYASNRYTGVPDRFTGSGYGTDFTFTISTVQAEDLAVYFCQQDDRFPLTFGAGPS | – | – | ≥ 15
human-mouse chimeric anti-CAPRIN-1 antibody #29 (antibody, human IgG1, kappa) heavy: not shown light: GTCGDIVMSQSPSSLAVSAGEKVTMSCKSSQSLLNSRTRKNYLAWVQHKPGQSPRLLIYWASTRESGVPDRFTGSGSGTDFTLTISSVQAEDLAVYYCRQSYNLVTFGAGPSTVAAPSVFIFPPSDEQLKSGTASVVCLLNNFYPREAKVQWKVDNALQSGNSQESVTEQDSKDSTYSLSSTLTLSKADYEKHKVYACEVTHQGLSSPVTKSFNRGEC | ≥ 20 | – | –
human-mouse chimeric anti-CAPRIN-1 antibody #30 (antibody) heavy: not shown light: DVQITQSPSYLAASPGETITINCRASKSISKYLAWYQEKPGKTNKLLIYSGSTLQSGIPSRFSGSGSGTDFTLTISSLEPEDFAMYYCQQHNEYPYTFGGGTKLEIKRTVAAPSVFIFPPSDEQLKSGTASVVCLLNNFYPREAKVQWKVDNALQSGNSQESVTEQDSKDSTYSLSSTLTLSKADYEKHKVYACEVTHQGLSSPVTKSFNRGEC | – | ≥ 20 | –
human-mouse chimeric anti-CAPRIN-1 antibody #31 (antibody, human IgG1, kappa) heavy: not shown light: DVQITQSPSYLAASPGETITINCRASKSISKYLAWYQEKPGKTNKLLIYSGSTLQSGIPSRFSGSGSGTDFTLTISSLEPEDFAMYYCQQHNEYPWTFGGGTKLEIKRTVAAPSVFIFPPSDEQLKSGTASVVCLLNNFYPREAKVQWKVDNALQSGNSQESVTEQDSKDSTYSLSSTLTLSKADYEKHKVYACEVTHQGLSSPVTKSFNRGEC | – | ≥ 20 | –
human-mouse chimeric anti-CAPRIN-1 antibody #24 (antibody, human IgG1, kappa, V domains shown) VH: GGGLVKPGGSLKLSCAASGFTFSSYGMSWVRQTPEKRLEWVATISSGGSYTYYPDSVKGRFTISRDNAKNTLYLQMSSLRSEDTAMYYCASLASYYFDYWGQGTTLTVSS VL: not shown | ≥ 20 | – | –
human-mouse chimeric anti-CAPRIN-1 antibody #26 (antibody, human IgG1, kappa) heavy: not shown light: PASSSDVLMTQTPLSLPVRLGDQSSISCRSSQSIVHSNGNTYLEWYLQKPGQSPKLLIYKVSNRFSGVPDRFSGSGSGTDFTLKISRVEPEDLGVYYCFQGSHVPYTSEGDQAEIKLATVAAPSVFIFPPSDEQLKSGTASVVCLLNNFYPREAKVQWKVDNALQSGNSQESVTEQDSKDSTYSLSSTLTLSKADYEKHKVYACEVTHQGLSSPVTKSFNRGEC | ≥ 20 | – | –
mouse monoclonal antibody #12 (antibody, V domains shown, mouse hybridoma antibody; also called anti-CAPRIN-1 mouse monoclonal antibody #12; anti-CAPRIN-1 monoclonal antibody #12) VH: EVQLHQFGAELVKPGASVKISCKASGYTFTDYNMDWVKQSHGKSLEWIGDINPNYDSTSYNQKFKGKATLTVDKSSSTAYMELRSLTSEDTAVYYCARSRSYDYEGFAYWGQGTLVTVSA VL: DIQMTQSPASLSASVGETVTITCRASGNIHNYLAWYQQKQGKSPQLLVYNAKTLADGVPSRFSGSGSGTQYSLKINSLQPEDFGSYYCQHFWSTLTFGAGTKLELKR | – | – | ≥ 15
human-mouse chimeric anti-CAPRIN-1 antibody #34 (antibody, human IgG1, kappa, V domains shown) VH: GAELVRPGTSVKVSCKASVYAFTNYLIEWVKQRPGQGLEWIGVINPKSGGTKYNEKFRGKATLTADKSSSTAYMQLSSLTSGDSAVYFCAITGTDYWGQGTTLTVSS VL: QGTRCDIQMTQTTSSLSASLGDRVTISCSASQGINNYLNWYQQKPDGTVKLLIYYTSSLRSGVPSRFSGSGSGTDYSLTISNLEPEDVATYYCQQYSKLPRTFGGGTKLEIKR | – | ≥ 20 | –

target: T1, CAPRIN-1 protein expressed on the cell …; test: flow cytometry, TGBC14TKB cells, culture supernatant, isotype control antibody as control
Protocol: Subsequently, a gallbladder cell line TGBC14TKB, which was confirmed to express a CAPRIN-1 gene, was investigated for whether or not a CAPRIN-1 protein is expressed on the surfaces of these cells. 1×10⁶ cells of TGBC14TKB were centrifuged with a 1.5-mL micro centrifugation tube. To the cells was added the culture supernatant (100 μL) containing any of anti-CAPRIN-1 mouse monoclonal antibodies #1 to #22 reacting to cancer cell surface produced in Example 4 and anti-CAPRIN-1 mouse-chicken chimeric antibodies #1 to #3 produced in the above (2), followed by being left to stand on ice for 1 hour. After washing with PBS, the cells were suspended in a FITC-labeled goat anti-mouse IgG antibody (manufactured by life technologies) diluted by 500-fold with PBS containing 0.1% FBS, followed by being left to stand on ice for 1 hour. After washing with PBS, the fluorescence intensity was measured with FACS Calibur available from Becton, Dickinson and Company. Separately, as a control, the same procedure as in above was performed using an iso-type control antibody, instead of the culture supernatants containing the anti-CAPRIN-1 mouse monoclonal antibodies #1 to #22 and the mouse-chicken chimeric antibodies #1 to #3. As a result, the fluorescence intensity in the cells to which any of the monoclonal antibodies #1 to #22 and the mouse-chicken chimeric antibodies #1 to #3 was added was 20% or more higher than that in the control in every case. Specifically, in the case of using mouse-chicken chimeric antibody #1, the fluorescence intensity was enhanced by 200% or more. […] The rate of increase in the fluorescence intensity is represented by the rate of increase in the mean fluorescence intensity (MFI value) in each cell and is calculated by the following calculation formula: […]

rate of increase in mean fluorescence intensity over control [%] | Binder
≥ 20 | mouse-chicken chimeric antibody #3 (antibody, mouse IgG1, V domains shown, also called anti-CAPRIN-1 mouse-chicken chimeric antibody #3) VH: AVTLDESGGGLQTPGGALSLVCKASGFTFSGYDMLWVRQAPGKGLEWVAGIGSTGGGTDYGAAVKGRATISRDNGQSTVRLQLNNLRAEDTATYYCAKVAGGCNSGYCRDSPGSIDAWGHGTEVIVS VL: AVTQQPASVSANPGETVKITCSGGGSRNYYGWYQQKSPGSVPVTVIYYDDQRPSNIPSRFSGALSGSTSTLTITGVQADDEAVYFCGSADSNTYEGSFGAGTTLTVL
≥ 20 | mouse monoclonal antibody #8 (antibody, V domains shown, mouse hybridoma antibody; also called anti-CAPRIN-1 mouse monoclonal antibody #8; anti-CAPRIN-1 monoclonal antibody #8) VH: GGGLVKPGGSLKLSCAASGFAFSSYDMSWIRQTPEKRLEWVAYISSGAGSTYYPDTVKGRFTVSRDNAKNTLYLQMSSLKSEDTAMYYCARHFYRFDYWGQGTTVTVSS VL: SIVMTQTPKFLLVSAGDRITITCKASQSVSNDVAWYQQKPGQSPKLLIYYASNRYTGVPDRFTGSGYGTDFTFTISTVQAEDLAVYFCQQDDRFPLTFGAGPS
≥ 20 | mouse-chicken chimeric antibody #2 (antibody, mouse IgG1, V domains shown, also called anti-CAPRIN-1 mouse-chicken chimeric antibody #2) VH: AVTLDESGGGLQTPGGGLSLVCKASGFTFSSFDMGWVRQAPGKGLEFVAQINDAGSRTWYATAVKGRATISRDNGQTTVRLQLNNLRAEDTGTYYCTRGSGYVGAGAIDAWGHGTEVIVS VL: AALTQPSSVSANPGETVKITCSGGSGYYGWYQQQKSPGSAPVTVIYQNDKRPSDIPSRFSGSGSGSTNTLTITGVQAEDEAVYFCGRYDSTDSGIFGAGTTLTVL
≥ 20 | mouse monoclonal antibody #12 (antibody, V domains shown, mouse hybridoma antibody; also called anti-CAPRIN-1 mouse monoclonal antibody #12; anti-CAPRIN-1 monoclonal antibody #12) VH: EVQLHQFGAELVKPGASVKISCKASGYTFTDYNMDWVKQSHGKSLEWIGDINPNYDSTSYNQKFKGKATLTVDKSSSTAYMELRSLTSEDTAVYYCARSRSYDYEGFAYWGQGTLVTVSA VL: DIQMTQSPASLSASVGETVTITCRASGNIHNYLAWYQQKQGKSPQLLVYNAKTLADGVPSRFSGSGSGTQYSLKINSLQPEDFGSYYCQHFWSTLTFGAGTKLELKR
